The values below come from paper PMC9924070 (Science Translational Medicine, 2021).

Positions count from the first letter of the chain named. In names and notes the source's numbering stands.

Test [1] concerns the target mouse IgG1 Fc-fused SARS-CoV-2 RBD (SARS-CoV-2, UniProt P0DTC2). As to the kind of experiment: BLI. The note with it: both partners purified.
The target in test [2] is monomeric human Fc-fused SARS-CoV-2_RBD-SD1 (SARS-CoV-2, Wuhan-Hu-1, UniProt P0DTC2). As to the kind of experiment: BLI. Particulars: both partners purified.
In test [3] the target is SARS-CoV-1 spike (SARS-CoV-1, reference entry; strain not …, UniProt P59594). As to the kind of experiment: cell-based or functional assay.

B1: humVHH_S56A (VHH)
VHH: EVQLVESGGGLVQPGGSLRLSCAASGRTFSEYAMGWFRQAPGKEREFVATISWSGGATYYTDSVKGRFTISRDNAKNTVYLQMNSLRPEDTAVYYCAAAGLGTVVSEWDYDYDYWGQGTLVTVSS
notes: also called humVHH72_S56A; VHH72_h1_S56A
As a reminder, the koff is the first-order rate constant of dissociation. A high value points to fast dissociation. In turn, B1 came in with a koff in test [1] of 0.019 s⁻¹.

B2: humVHH (VHH)
VHH: B1 VHH with A57S
notes: also called humanized VHH72; VHH72_h1
B2 registered a dissociation rate constant (koff) in test [1] of 0.075 s⁻¹.

B3: humVHH_S56A (VHH)
VHH: B1 VHH
notes: also called monomeric humanized VHH72 with the S56A substitution
Consider B3, for which the “fold increase in affinity over humVHH” value in test [2] was ~7 fold. Moreover, the “neutralization of VSV SARS-CoV-1 spike pseudotype virus, potency against humVHH” value in test [3] was determined as 10 fold.
